Experimental data: patent publication US10941182 (Amgen, dated 2021)
Starred links: 1 amine or outer side, 2 acyl side, 3 side chain; linkers in the order of their positions; H or OH if unused. Non-standard residues stand in square brackets, D forms with d. *: point of attachment. dBip = N[C@H](Cc1ccc(-c2ccccc2)cc1)C(=O)O; Oic = O=C(O)[C@@H]1C[C@@H]2CCCC[C@@H]2N1; Phe(4-Cl) = N[C@@H](Cc1ccc(Cl)cc1)C(=O)O; Phe(4-I) = N[C@@H](Cc1ccc(I)cc1)C(=O)O; γGlu = O=C(O)[C@H](CCC(=O)[*:2])N[*:1]; Tridecanoyl = CCCCCCCCCCCCC(=O)*; hArg = N=C(N)NCCCC[C@H](N)C(=O)O; Cha = N[C@@H](CC1CCCCC1)C(=O)O; NMeL = CN[C@@H](CC(C)C)C(=O)O; Nle = CCCC[C@H](N)C(=O)O; AEEA = NCCOCCOCC(=O)O

B1: Apelin polypeptide SEQ ID NO: 350 (peptide)
peptide: Tridecanoyl-[γGlu][AEEA][AEEA]RQRP[Nle][Cha]SAKG[Oic][Nle]P[Phe(4-Cl)]-OH
SMILES: CCCCCCCCCCCCC(=O)N[C@@H](CCC(=O)NCCOCCOCC(=O)NCCOCCOCC(=O)N[C@@H](CCCNC(=N)N)C(=O)N[C@@H](CCC(N)=O)C(=O)N[C@@H](CCCNC(=N)N)C(=O)N1CCC[C@H]1C(=O)N[C@@H](CCCC)C(=O)N[C@@H](CC1CCCCC1)C(=O)N[C@@H](CO)C(=O)N[C@@H](C)C(=O)N[C@@H](CCCCN)C(=O)NCC(=O)N1[C@H](C(=O)N[C@@H](CCCC)C(=O)N2CCC[C@H]2C(=O)N[C@@H](Cc2ccc(Cl)cc2)C(=O)O)C[C@@H]2CCCC[C@@H]21)C(=O)O
B2: Apelin polypeptide SEQ ID NO: 335 (peptide)
peptide: Tridecanoyl-[γGlu][AEEA][AEEA]RQRP[Nle][Cha]SHKG[Oic][Nle]P[Phe(4-Cl)]-OH
SMILES: CCCCCCCCCCCCC(=O)N[C@@H](CCC(=O)NCCOCCOCC(=O)NCCOCCOCC(=O)N[C@@H](CCCNC(=N)N)C(=O)N[C@@H](CCC(N)=O)C(=O)N[C@@H](CCCNC(=N)N)C(=O)N1CCC[C@H]1C(=O)N[C@@H](CCCC)C(=O)N[C@@H](CC1CCCCC1)C(=O)N[C@@H](CO)C(=O)N[C@@H](Cc1c[nH]cn1)C(=O)N[C@@H](CCCCN)C(=O)NCC(=O)N1[C@H](C(=O)N[C@@H](CCCC)C(=O)N2CCC[C@H]2C(=O)N[C@@H](Cc2ccc(Cl)cc2)C(=O)O)C[C@@H]2CCCC[C@@H]21)C(=O)O
B3: Apelin polypeptide SEQ ID NO: 320 (peptide)
peptide: Tridecanoyl-[γGlu][AEEA][AEEA][Nle][dR]Q[hArg]P[dR][NMeL]AHKG[Oic][Phe(4-I)]P[dBip]-OH
SMILES: CCCCCCCCCCCCC(=O)N[C@@H](CCC(=O)NCCOCCOCC(=O)NCCOCCOCC(=O)N[C@@H](CCCC)C(=O)N[C@H](CCCNC(=N)N)C(=O)N[C@@H](CCC(N)=O)C(=O)N[C@@H](CCCCNC(=N)N)C(=O)N1CCC[C@H]1C(=O)N[C@H](CCCNC(=N)N)C(=O)N(C)[C@@H](CC(C)C)C(=O)N[C@@H](C)C(=O)N[C@@H](Cc1c[nH]cn1)C(=O)N[C@@H](CCCCN)C(=O)NCC(=O)N1[C@H](C(=O)N[C@@H](Cc2ccc(I)cc2)C(=O)N2CCC[C@H]2C(=O)N[C@H](Cc2ccc(-c3ccccc3)cc2)C(=O)O)C[C@@H]2CCCC[C@@H]21)C(=O)O
B4: Apelin polypeptide SEQ ID NO: 326 (peptide)
peptide: Tridecanoyl-[γGlu][AEEA][AEEA][Nle][dR]Q[hArg]P[dR][NMeL]SAKG[Oic][Phe(4-I)]P[dBip]-OH
SMILES: CCCCCCCCCCCCC(=O)N[C@@H](CCC(=O)NCCOCCOCC(=O)NCCOCCOCC(=O)N[C@@H](CCCC)C(=O)N[C@H](CCCNC(=N)N)C(=O)N[C@@H](CCC(N)=O)C(=O)N[C@@H](CCCCNC(=N)N)C(=O)N1CCC[C@H]1C(=O)N[C@H](CCCNC(=N)N)C(=O)N(C)[C@@H](CC(C)C)C(=O)N[C@@H](CO)C(=O)N[C@@H](C)C(=O)N[C@@H](CCCCN)C(=O)NCC(=O)N1[C@H](C(=O)N[C@@H](Cc2ccc(I)cc2)C(=O)N2CCC[C@H]2C(=O)N[C@H](Cc2ccc(-c3ccccc3)cc2)C(=O)O)C[C@@H]2CCCC[C@@H]21)C(=O)O
B5: Apelin polypeptide SEQ ID NO: 328 (peptide)
peptide: Tridecanoyl-[γGlu][AEEA][AEEA][hArg][dR]Q[Nle]P[dR][NMeL]SAKG[Oic][Phe(4-I)]P[dBip]-OH
SMILES: CCCCCCCCCCCCC(=O)N[C@@H](CCC(=O)NCCOCCOCC(=O)NCCOCCOCC(=O)N[C@@H](CCCCNC(=N)N)C(=O)N[C@H](CCCNC(=N)N)C(=O)N[C@@H](CCC(N)=O)C(=O)N[C@@H](CCCC)C(=O)N1CCC[C@H]1C(=O)N[C@H](CCCNC(=N)N)C(=O)N(C)[C@@H](CC(C)C)C(=O)N[C@@H](CO)C(=O)N[C@@H](C)C(=O)N[C@@H](CCCCN)C(=O)NCC(=O)N1[C@H](C(=O)N[C@@H](Cc2ccc(I)cc2)C(=O)N2CCC[C@H]2C(=O)N[C@H](Cc2ccc(-c3ccccc3)cc2)C(=O)O)C[C@@H]2CCCC[C@@H]21)C(=O)O
B6: Apelin polypeptide SEQ ID NO: 316 (peptide)
peptide: Tridecanoyl-[γGlu][AEEA][AEEA][hArg][dR]Q[Nle]P[dR][NMeL]SHKG[Oic][Phe(4-I)]P[dBip]-OH
SMILES: CCCCCCCCCCCCC(=O)N[C@@H](CCC(=O)NCCOCCOCC(=O)NCCOCCOCC(=O)N[C@@H](CCCCNC(=N)N)C(=O)N[C@H](CCCNC(=N)N)C(=O)N[C@@H](CCC(N)=O)C(=O)N[C@@H](CCCC)C(=O)N1CCC[C@H]1C(=O)N[C@H](CCCNC(=N)N)C(=O)N(C)[C@@H](CC(C)C)C(=O)N[C@@H](CO)C(=O)N[C@@H](Cc1c[nH]cn1)C(=O)N[C@@H](CCCCN)C(=O)NCC(=O)N1[C@H](C(=O)N[C@@H](Cc2ccc(I)cc2)C(=O)N2CCC[C@H]2C(=O)N[C@H](Cc2ccc(-c3ccccc3)cc2)C(=O)O)C[C@@H]2CCCC[C@@H]21)C(=O)O
B7: Apelin polypeptide SEQ ID NO: 347 (peptide)
peptide: Tridecanoyl-[γGlu][AEEA][AEEA][Nle]QRP[hArg][Cha]AAKG[Oic][Nle]P[Phe(4-Cl)]-OH
SMILES: CCCCCCCCCCCCC(=O)N[C@@H](CCC(=O)NCCOCCOCC(=O)NCCOCCOCC(=O)N[C@@H](CCCC)C(=O)N[C@@H](CCC(N)=O)C(=O)N[C@@H](CCCNC(=N)N)C(=O)N1CCC[C@H]1C(=O)N[C@@H](CCCCNC(=N)N)C(=O)N[C@@H](CC1CCCCC1)C(=O)N[C@@H](C)C(=O)N[C@@H](C)C(=O)N[C@@H](CCCCN)C(=O)NCC(=O)N1[C@H](C(=O)N[C@@H](CCCC)C(=O)N2CCC[C@H]2C(=O)N[C@@H](Cc2ccc(Cl)cc2)C(=O)O)C[C@@H]2CCCC[C@@H]21)C(=O)O
B8: Apelin polypeptide SEQ ID NO: 338 (peptide)
peptide: Tridecanoyl-[γGlu][AEEA][AEEA][Nle]QRP[hArg][Cha]SHKG[Oic][Nle]P[Phe(4-Cl)]-OH
SMILES: CCCCCCCCCCCCC(=O)N[C@@H](CCC(=O)NCCOCCOCC(=O)NCCOCCOCC(=O)N[C@@H](CCCC)C(=O)N[C@@H](CCC(N)=O)C(=O)N[C@@H](CCCNC(=N)N)C(=O)N1CCC[C@H]1C(=O)N[C@@H](CCCCNC(=N)N)C(=O)N[C@@H](CC1CCCCC1)C(=O)N[C@@H](CO)C(=O)N[C@@H](Cc1c[nH]cn1)C(=O)N[C@@H](CCCCN)C(=O)NCC(=O)N1[C@H](C(=O)N[C@@H](CCCC)C(=O)N2CCC[C@H]2C(=O)N[C@@H](Cc2ccc(Cl)cc2)C(=O)O)C[C@@H]2CCCC[C@@H]21)C(=O)O
B9: Apelin polypeptide SEQ ID NO: 332 (peptide)
peptide: Tridecanoyl-[γGlu][AEEA][AEEA][Nle][dR]Q[hArg]P[dR][NMeL]AAKG[Oic][Phe(4-I)]P[dBip]-OH
SMILES: CCCCCCCCCCCCC(=O)N[C@@H](CCC(=O)NCCOCCOCC(=O)NCCOCCOCC(=O)N[C@@H](CCCC)C(=O)N[C@H](CCCNC(=N)N)C(=O)N[C@@H](CCC(N)=O)C(=O)N[C@@H](CCCCNC(=N)N)C(=O)N1CCC[C@H]1C(=O)N[C@H](CCCNC(=N)N)C(=O)N(C)[C@@H](CC(C)C)C(=O)N[C@@H](C)C(=O)N[C@@H](C)C(=O)N[C@@H](CCCCN)C(=O)NCC(=O)N1[C@H](C(=O)N[C@@H](Cc2ccc(I)cc2)C(=O)N2CCC[C@H]2C(=O)N[C@H](Cc2ccc(-c3ccccc3)cc2)C(=O)O)C[C@@H]2CCCC[C@@H]21)C(=O)O
B10: Apelin polypeptide SEQ ID NO: 342 (peptide)
peptide: Tridecanoyl-[γGlu][AEEA][AEEA][Nle]QRP[hArg][Cha]SAKG[Oic][Nle]P[Phe(4-Cl)]-OH
SMILES: CCCCCCCCCCCCC(=O)N[C@@H](CCC(=O)NCCOCCOCC(=O)NCCOCCOCC(=O)N[C@@H](CCCC)C(=O)N[C@@H](CCC(N)=O)C(=O)N[C@@H](CCCNC(=N)N)C(=O)N1CCC[C@H]1C(=O)N[C@@H](CCCCNC(=N)N)C(=O)N[C@@H](CC1CCCCC1)C(=O)N[C@@H](CO)C(=O)N[C@@H](C)C(=O)N[C@@H](CCCCN)C(=O)NCC(=O)N1[C@H](C(=O)N[C@@H](CCCC)C(=O)N2CCC[C@H]2C(=O)N[C@@H](Cc2ccc(Cl)cc2)C(=O)O)C[C@@H]2CCCC[C@@H]21)C(=O)O

Each binder was assayed against T1, human APJ receptor (human, UniProt P35414 1-380) (assay: cell-based or functional assay).
T1 sequence (looked up): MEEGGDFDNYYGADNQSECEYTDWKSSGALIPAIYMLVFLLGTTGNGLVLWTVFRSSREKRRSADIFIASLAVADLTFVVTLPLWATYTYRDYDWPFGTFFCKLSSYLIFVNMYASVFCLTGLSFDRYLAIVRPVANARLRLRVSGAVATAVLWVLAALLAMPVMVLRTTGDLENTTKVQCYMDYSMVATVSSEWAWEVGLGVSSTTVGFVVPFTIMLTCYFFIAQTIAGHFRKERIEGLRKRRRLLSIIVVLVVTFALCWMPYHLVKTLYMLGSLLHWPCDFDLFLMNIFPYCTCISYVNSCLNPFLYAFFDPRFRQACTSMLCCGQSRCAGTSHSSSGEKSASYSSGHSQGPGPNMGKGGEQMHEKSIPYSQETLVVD

Row | Binder | EC50 Human APJ Receptor (GTPγS assay)
1 | B1 | 0.285 nM
2 | B2 | 0.315 nM
3 | B3 | 17.9 nM
4 | B4 | 14.8 nM
5 | B5 | 9.17 nM
6 | B6 | 6 nM
7 | B7 | 1.89 nM
8 | B8 | 0.56 nM
9 | B9 | 40 nM
10 | B10 | 0.803 nM

The binders below were run against T2, rat APJ receptor (rat, UniProt Q9JHG3 1-377) (assay: cell-based or functional assay).
T2 sequence (looked up): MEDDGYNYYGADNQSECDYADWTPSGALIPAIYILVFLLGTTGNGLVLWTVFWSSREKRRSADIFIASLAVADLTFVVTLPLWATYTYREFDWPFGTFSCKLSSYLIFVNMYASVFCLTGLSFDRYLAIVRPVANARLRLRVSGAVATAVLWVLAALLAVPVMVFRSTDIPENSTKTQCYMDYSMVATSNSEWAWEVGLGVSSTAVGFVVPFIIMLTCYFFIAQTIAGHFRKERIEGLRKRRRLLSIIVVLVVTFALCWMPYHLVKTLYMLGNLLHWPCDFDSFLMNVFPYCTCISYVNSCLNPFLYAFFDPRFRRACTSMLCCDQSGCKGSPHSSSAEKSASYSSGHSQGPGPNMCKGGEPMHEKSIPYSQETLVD

Row | Binder | EC50 Rat APJ Receptor (GTPγS assay)
11 | B1 | 0.624 nM
12 | B2 | 0.964 nM
13 | B3 | 37.7 nM
14 | B4 | 17.8 nM
15 | B5 | 7.7 nM
16 | B6 | 9.29 nM
17 | B7 | 2.13 nM
18 | B8 | 0.766 nM
19 | B9 | 50.5 nM
20 | B10 | 0.684 nM
